From paper doi:10.1101/2025.02.04.636450

Columns and labels:
[1] = target: circularly permuted AaLS with a Strep II tag in place of the His-tag region (cpAaLS(Strep)) (Aquifex aeolicus)
[2] = target: wildtype lumazine synthase from Aquifex aeolicus (AaLS-wt) (Aquifex aeolicus) (UniProt O66529); assay: absorbance ratio at 280/475 nm
[3] = target: circularly permuted AaLS with a His-tag in the linker connecting native termini (cpAaLS(His)) (Aquifex aeolicus); assay: absorbance ratio at 280/475 nm

Substance	stoichiometry N [1]	GFP molecules per pentamer (GFP molecules per pentamer) [2]	GFP molecules per pentamer (GFP molecules per pentamer) [3]
circularly permuted AaLS with a Strep II tag in place of the His-tag region (cpAaLS(Strep))	5		
cpAaLS-GFP-SsrA (GFP-SsrA fused to the C-terminus of cpAaLS)		0.11	0.14
